Data from patent US20260167699A1 (Chugai, published 2026).
Numbering of substitutions follows the chain as printed.

T1: FcγRIIb extracellular domain, C-terminal His tag (human, UniProt P31994 43-217)
T1 construct: extracellular domain; also called 2b
T1 sequence: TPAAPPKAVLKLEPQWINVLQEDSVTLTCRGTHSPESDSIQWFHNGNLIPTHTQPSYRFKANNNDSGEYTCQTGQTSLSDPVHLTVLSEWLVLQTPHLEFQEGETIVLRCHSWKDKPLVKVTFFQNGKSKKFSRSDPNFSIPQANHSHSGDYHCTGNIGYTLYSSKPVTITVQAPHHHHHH

T2: FcγRIIa(R) extracellular domain, C-terminal His tag (human, UniProt P12318 34-217)
T2 construct: extracellular domain; also called 2aR
T2 sequence: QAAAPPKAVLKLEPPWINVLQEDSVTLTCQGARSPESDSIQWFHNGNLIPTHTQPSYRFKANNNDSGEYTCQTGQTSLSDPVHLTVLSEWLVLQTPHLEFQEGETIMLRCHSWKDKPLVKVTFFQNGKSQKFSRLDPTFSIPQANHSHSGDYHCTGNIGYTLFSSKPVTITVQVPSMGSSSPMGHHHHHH

T3: FcγRIIa(H) extracellular domain, C-terminal His tag (human, UniProt P12318 34-217)
T3 construct: extracellular domain; also called 2aH
T3 sequence: T2 sequence with R134H

B1: GpH7-A5/GpH7-B3 variant S298_07I/GpL16-k0 (antibody, human IgG1, kappa)
heavy 1: not shown
heavy 2: not shown
light: DIVMTQSPLSLPVTPGEPASISCQASESLVHSNRNTYLHWYLQKPGQSPQLLIYKVSNRFSGVPDRFSGSGSGTDFTLKISRVEAEDVGVYYCSQNTHVPPTFGQGTKVEIERTVAAPSVFIFPPSDEQLKSGTASVVCLLNNFYPREAKVQWKVDNALQSGNSQESVTEQDSKDSTYSLSSTLTLSKADYEKHKVYACEVTHQGLSSPVTKSFNRGEC
notes: heterodimerized IgG1, one H chain mutated; also called He Ab; copies: 1 + 1 + 2
B2: GpH7-A5/GpH7-B3 variant Y296_01G/GpL16-k0 (antibody, human IgG1, kappa)
heavy 1: not shown
heavy 2: not shown
light: B1 light
notes: as for B1
B3: GpH7-A5/GpH7-B3 variant S298_16H/GpL16-k0 (antibody, human IgG1, kappa)
heavy 1: not shown
heavy 2: not shown
light: B1 light
notes: as for B1
B4: GpH7-A5/GpH7-B3 variant S324_04F/GpL16-k0 (antibody, human IgG1, kappa)
heavy 1: not shown
heavy 2: not shown
light: B1 light
notes: as for B1
B5: GpH7-A5/GpH7-B3 variant S324_18N/GpL16-k0 (antibody, human IgG1, kappa)
heavy 1: not shown
heavy 2: not shown
light: B1 light
notes: as for B1
B6: GpH7-A5/GpH7-B3 variant S298_12R/GpL16-k0 (antibody, human IgG1, kappa)
heavy 1: not shown
heavy 2: not shown
light: B1 light
notes: as for B1
B7: GpH7-A5/GpH7-B3 variant S298_08L/GpL16-k0 (antibody, human IgG1, kappa)
heavy 1: not shown
heavy 2: not shown
light: B1 light
notes: as for B1
B8: GpH7-A5/GpH7-B3 variant S324_03V/GpL16-k0 (antibody, human IgG1, kappa)
heavy 1: not shown
heavy 2: not shown
light: B1 light
notes: as for B1
B9: GpH7-A5/GpH7-B3 variant Y296_11K/GpL16-k0 (antibody, human IgG1, kappa)
heavy 1: not shown
heavy 2: not shown
light: B1 light
notes: as for B1
B10: GpH7-A5/GpH7-B3 variant Y296_09D/GpL16-k0 (antibody, human IgG1, kappa)
heavy 1: not shown
heavy 2: not shown
light: B1 light
notes: as for B1
B11: GpH7-A5/GpH7-B3 variant Y296_07I/GpL16-k0 (antibody, human IgG1, kappa)
heavy 1: not shown
heavy 2: not shown
light: B1 light
notes: as for B1
B12: GpH7-A5/GpH7-B3 variant S298_19Q/GpL16-k0 (antibody, human IgG1, kappa)
heavy 1: not shown
heavy 2: not shown
light: B1 light
notes: as for B1
B13: GpH7-A5/GpH7-B3 variant S324_08L/GpL16-k0 (antibody, human IgG1, kappa)
heavy 1: not shown
heavy 2: not shown
light: B1 light
notes: as for B1
B14: GpH7-A5/GpH7-B3 variant Y296_04F/GpL16-k0 (antibody, human IgG1, kappa)
heavy 1: not shown
heavy 2: not shown
light: B1 light
notes: as for B1
B15: GpH7-A5/GpH7-B3 variant S324_15Y/GpL16-k0 (antibody, human IgG1, kappa)
heavy 1: not shown
heavy 2: not shown
light: B1 light
notes: as for B1
B16: GpH7-A5/GpH7-B3 variant S324_10E/GpL16-k0 (antibody, human IgG1, kappa)
heavy 1: not shown
heavy 2: not shown
light: B1 light
notes: as for B1
B17: GpH7-A5/GpH7-B3 variant Y296_03V/GpL16-k0 (antibody, human IgG1, kappa)
heavy 1: not shown
heavy 2: not shown
light: B1 light
notes: as for B1
B18: GpH7-A5/GpH7-B3 variant S324_14T/GpL16-k0 (antibody, human IgG1, kappa)
heavy 1: not shown
heavy 2: not shown
light: B1 light
notes: as for B1
B19: GpH7-A5/GpH7-B3 variant S298_11K/GpL16-k0 (antibody, human IgG1, kappa)
heavy 1: not shown
heavy 2: not shown
light: B1 light
notes: as for B1
B20: GpH7-A5/GpH7-B3 variant Y296_06M/GpL16-k0 (antibody, human IgG1, kappa)
heavy 1: not shown
heavy 2: not shown
light: B1 light
notes: as for B1
B21: GpH7-A5/GpH7-B3 variant Y296_08L/GpL16-k0 (antibody, human IgG1, kappa)
heavy 1: not shown
heavy 2: not shown
light: B1 light
notes: as for B1
B22: GpH7-A5/GpH7-B3 variant S298_15Y/GpL16-k0 (antibody, human IgG1, kappa)
heavy 1: not shown
heavy 2: not shown
light: B1 light
notes: as for B1
B23: GpH7-A5/GpH7-B3 variant S298_14T/GpL16-k0 (antibody, human IgG1, kappa)
heavy 1: not shown
heavy 2: not shown
light: B1 light
notes: as for B1
B24: GpH7-A5/GpH7-B3 variant Y296_02A/GpL16-k0 (antibody, human IgG1, kappa)
heavy 1: not shown
heavy 2: not shown
light: B1 light
notes: as for B1
B25: GpH7-A5/GpH7-B3 variant S324_12R/GpL16-k0 (antibody, human IgG1, kappa)
heavy 1: not shown
heavy 2: not shown
light: B1 light
notes: as for B1
B26: GpH7-A5/GpH7-B3 variant Y296_10E/GpL16-k0 (antibody, human IgG1, kappa)
heavy 1: not shown
heavy 2: not shown
light: B1 light
notes: as for B1
B27: GpH7-A5/GpH7-B3 variant S324_11K/GpL16-k0 (antibody, human IgG1, kappa)
heavy 1: not shown
heavy 2: not shown
light: B1 light
notes: as for B1
B28: GpH7-A5/GpH7-B3 variant S324_09D/GpL16-k0 (antibody, human IgG1, kappa)
heavy 1: not shown
heavy 2: not shown
light: B1 light
notes: as for B1
B29: GpH7-A5/GpH7-B3 variant S324_07I/GpL16-k0 (antibody, human IgG1, kappa)
heavy 1: not shown
heavy 2: not shown
light: B1 light
notes: as for B1
B30: GpH7-A5/GpH7-B3 variant S324_19Q/GpL16-k0 (antibody, human IgG1, kappa)
heavy 1: not shown
heavy 2: not shown
light: B1 light
notes: as for B1

Molecular target: T4, FcγRIa extracellular domain, C-terminal His tag (human, UniProt P12314 16-292)
T4 construct: extracellular domain; also called 1a
Assay: SPR; He Ab vs HeCon Ab (GpH7-A5/GpH7-B3/GpL16-k0)=100;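 note: surface plasmon resonance at 25 °C with the test antibody captured on a sensor chip via antigenic peptide, protein L or protein A/G and FcγR flowed over as analyte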

T4 sequence (P12314 other isoform, or with tags, fused parts or gaps): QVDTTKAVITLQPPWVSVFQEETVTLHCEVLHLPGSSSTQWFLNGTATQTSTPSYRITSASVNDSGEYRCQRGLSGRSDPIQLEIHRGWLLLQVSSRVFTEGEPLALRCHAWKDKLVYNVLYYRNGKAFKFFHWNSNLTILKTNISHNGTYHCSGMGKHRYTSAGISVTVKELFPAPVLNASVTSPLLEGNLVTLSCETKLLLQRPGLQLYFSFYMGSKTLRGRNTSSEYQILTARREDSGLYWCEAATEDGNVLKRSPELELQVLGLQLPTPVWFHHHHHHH

| He/Con 1a | Binder |
| --- | --- |
| 104% | B1 |
| 99.4% | B2 |
| 105% | B3 |
| 103% | B4 |
| 109% | B5 |
| 106% | B6 |
| 104% | B7 |
| 97.7% | B8 |
| 102% | B9 |
| 103% | B10 |
| 101% | B11 |
| 106% | B12 |
| 97.3% | B13 |
| 101% | B14 |
| 107% | B15 |
| 98.9% | B16 |
| 101% | B17 |
| 114% | B18 |
| 106% | B19 |
| 101% | B20 |
| 101% | B21 |
| 104% | B22 |
| 104% | B23 |
| 99.8% | B24 |
| 95.9% | B25 |
| 102% | B26 |
| 96.3% | B27 |
| 97.7% | B28 |
| 96.2% | B29 |
| 106% | B30 |

Molecular target: T1, FcγRIIb extracellular domain, …
Assay: as above

| He/Con 2b | Binder |
| --- | --- |
| 71.5% | B1 |
| 80.4% | B2 |
| 64.4% | B3 |
| 99.9% | B4 |
| 106% | B5 |
| 58.6% | B6 |
| 110% | B7 |
| 128% | B8 |
| 73.8% | B9 |
| 100% | B10 |
| 85.5% | B11 |
| 74.3% | B12 |
| 117% | B13 |
| 101% | B14 |
| 115% | B15 |
| 101% | B16 |
| 80.4% | B17 |
| 115% | B18 |
| 62.2% | B19 |
| 89% | B20 |
| 83.5% | B21 |
| 62.2% | B22 |
| 79% | B23 |
| 83.1% | B24 |
| 82.4% | B25 |
| 99.4% | B26 |
| 89.6% | B27 |
| 112% | B28 |
| 125% | B29 |
| 87.2% | B30 |

Molecular target: T2, FcγRIIa(R) extracellular domain, …
Assay: as above

| He/Con 2aR | Binder |
| --- | --- |
| 86.2% | B1 |
| 91.6% | B2 |
| 84.7% | B3 |
| 99.6% | B4 |
| 101% | B5 |
| 81.6% | B6 |
| 100% | B7 |
| 113% | B8 |
| 90.3% | B9 |
| 101% | B10 |
| 96.7% | B11 |
| 90.9% | B12 |
| 110% | B13 |
| 105% | B14 |
| 107% | B15 |
| 99% | B16 |
| 92% | B17 |
| 93.9% | B18 |
| 91% | B19 |
| 96.8% | B20 |
| 93.7% | B21 |
| 75.7% | B22 |
| 94.2% | B23 |
| 93% | B24 |
| 84% | B25 |
| 98.2% | B26 |
| 91% | B27 |
| 102% | B28 |
| 109% | B29 |
| 86.8% | B30 |

Molecular target: T3, FcγRIIa(H) extracellular domain, …
Assay: as above

| He/Con 2aH | Binder |
| --- | --- |
| 84.9% | B1 |
| 91.6% | B2 |
| 80.2% | B3 |
| 106% | B4 |
| 109% | B5 |
| 67.4% | B6 |
| 83% | B7 |
| 108% | B8 |
| 83.7% | B9 |
| 102% | B10 |
| 92.7% | B11 |
| 88.9% | B12 |
| 106% | B13 |
| 97.8% | B14 |
| 114% | B15 |
| 114% | B16 |
| 86.9% | B17 |
| 107% | B18 |
| 63.9% | B19 |
| 94.2% | B20 |
| 86.9% | B21 |
| 71.2% | B22 |
| 96.2% | B23 |
| 89.1% | B24 |
| 107% | B25 |
| 94% | B26 |
| 102% | B27 |
| 117% | B28 |
| 107% | B29 |
| 106% | B30 |

Molecular target: T5, FcγRIIIa extracellular domain, C-terminal His tag (human, UniProt P08637 17-208)
T5 construct: extracellular domain; also called 3a
Assay: as above

T5 sequence (P08637 other isoform, or with tags, fused parts or gaps): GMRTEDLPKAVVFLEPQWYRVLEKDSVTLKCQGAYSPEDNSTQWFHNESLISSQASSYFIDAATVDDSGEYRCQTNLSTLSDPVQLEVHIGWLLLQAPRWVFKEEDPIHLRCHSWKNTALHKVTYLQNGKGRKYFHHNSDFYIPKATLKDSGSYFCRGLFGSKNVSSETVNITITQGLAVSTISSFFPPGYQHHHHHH

| He/Con 3a | Binder |
| --- | --- |
| 90.7% | B1 |
| 51.3% | B2 |
| 71.9% | B3 |
| 99.3% | B4 |
| 103% | B5 |
| 52.1% | B6 |
| 69.2% | B7 |
| 101% | B8 |
| 53.3% | B9 |
| 89% | B10 |
| 75.8% | B11 |
| 70.6% | B12 |
| 95.5% | B13 |
| 79.5% | B14 |
| 110% | B15 |
| 108% | B16 |
| 69.1% | B17 |
| 112% | B18 |
| 50% | B19 |
| 74.6% | B20 |
| 72.4% | B21 |
| 80.6% | B22 |
| 106% | B23 |
| 66.3% | B24 |
| 98.1% | B25 |
| 76.8% | B26 |
| 90.2% | B27 |
| 110% | B28 |
| 101% | B29 |
| 96.2% | B30 |
